Earlier results, collected in PMC11301627.

Biological target: Asp133 (UniProt position 133, SNFHFDTTAAH)
Assay: kinetics
Conditions: wild-type enzyme, steady-state reaction with L-Trp

Substance: Tryptophan indole-lyase (TIL, tryptophanase) (Proteus vulgaris)
- pKa: 5.3
